The record followed here is patent publication US20210292393A1 (published 2021).

Where a chain is given by its changes, count along the chain named.

Experiment [1] addresses SARS-CoV spike protein (full length, trimeric) (SARS-CoV, UniProt P59594 14-1190).
Experiment [2] concerns the target SARS-CoV spike protein (full-length trimeric, conjugated to optically encoded beads) (SARS-CoV, UniProt P59594 14-1190).
The target in experiment [3] is SARS-CoV spike protein (full length spike, trimeric, conjugated to beads) (SARS-CoV, UniProt P59594 14-1190).

B1: antibody 443 (antibody, V domains shown)
VH: QMRLEESGPGLVKPSETLSLTCTVAGGSITSSDYFWGWLRQSPGKGLEWIASTYHGGSIQYHPALKSRVTISVDASKNQISLRLSSVTAADTAVYYCARDRGDDGPMGTYYFDHWGQGALVTVSS
VL: QSVLTQPPSVSGAPGQSVTISCAGSSSNIGAGHDVHWYQQIPGTAPKLLICGNTNRPSGVPERFSGSRSGTSASLAITGLQAEDEAVYYCQSYDPSHVFFGTGTKLTVL
As for B1, in experiment [1], the “fold over isotype control (median fluorescence)” value (“fold … (median fluorescence)” for short) was determined as 1.03 fold over isotype.

B2: antibody 563 (antibody, V domains shown)
VH: QVQLVESGGGVVQPGRSLRLSCAASGFTFSSYAMHWVRQAPGKGLEWVAVISDDGSNKYYADSVKGRFTISRDNSKNTLYLQMNSLRAEDTAVYYCARDIVATIRRLFDYWGQGTLVTVSS
VL: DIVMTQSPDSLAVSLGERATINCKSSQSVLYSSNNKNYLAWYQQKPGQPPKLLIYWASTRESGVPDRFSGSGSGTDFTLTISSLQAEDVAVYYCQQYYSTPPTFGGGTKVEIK
B2: the “fold over isotype control (median fluorescence intensity)” value (shortened to “fold … (median fluorescence intensity)”) in experiment [2] came to 35.4 fold over isotype.

B3: antibody 470 (antibody, V domains shown)
VH: not shown
VL: QSALTQPASVSGSPGQSITISCTGTSSDVGSYNLVSWYQQHPGKAPKLMIYEVSKRPSGVSNRFSGSKSGNTASLTISGLQAEDEADYYCCSYAGSSTLVFGGGTKLTVL
With B3, the “fold … (median fluorescence)” value in experiment [1] was 1.09 fold over isotype.

B4: antibody 485 (antibody, V domains shown)
VH: QVQLQESGPGLVKPSGTLSLTCAVSGASISSSNWWSWVRQPPGKGLEWIGEIYHSGSTNYNPSLKSRVTISVDKSKNQFSLKLSSVTAADTAVYYCARRSYYGSGSYYPFDYWGQGTLVTVSS
VL: B3 VL with V53G, S54R, L99Y, G103T, L107V
For the molecule B4, the “fold … (median fluorescence)” value in experiment [1] is 1.12 fold over isotype.

B5: antibody 452 (antibody, V domains shown)
VH: QVQLVESGGGLVKPGGSLRLSCAASGFTFSDYYLSWIRQAPGKGLEWVSYISSSGSNIYYADSVKGRFTISRDNAKNSLYLQMNSLRADDTAVFYCARAGRYCSGGSCRVEYFQHWGQGTLVTVSS
VL: SYELTQPPSVSVSPGQTARITCSGDALPKQYAYWYQQKPGQAPVLVIYKDNERPSGIPERFSGSSSGTTATLTISGVQAEDEADYYCQSADSSGTVVFGGGTKLTVL
Take B5: in experiment [1], the “fold … (median fluorescence)” value worked out at 1.09 fold over isotype.

B6: antibody 454 (antibody, V domains shown)
VH: QVQLVQSGAEVKKPGASLKVSCKASGYIFTGYYMHWVRQAPGQGLEWMGWISPNSGGTKYAQKFQGRVTMTRDTSISTAYMELSRLRSDDSAVYYCAREPYYDILTGYYTPRRYLDYWGQGTLVTVSS
VL: QSALTQPASVSGSPGQSITISCTGTSSDVGDYNYVSWYQQHPGKVPKLMIYDVSHRPSGVTNRFSGSKSGNTASLTISGLRAEDEADYYCSSYTSSSTYVFGTGTKVTVL
As for B6, the “fold … (median fluorescence)” value in experiment [1] is 1.1 fold over isotype.

B7: antibody 556 (antibody, V domains shown)
VH: QVQLVESGGGVVQPGRSLRLSCAASGFTFSSYAMHWVRQAPGKGLEWVAVISYDGSDKYYADSVKGRVTISRDNSKNTLYLQMNSLRVEDTAVFYCAKDDCSGGVCFPDYWGQGTLVTVSS
VL: B3 VL with S31G, L34Y, K55I, D87A, C91S, A94T, G95S
For B7, the “fold … (median fluorescence intensity)” value in experiment [2] was 1.09 fold over isotype.

B8: antibody 477 (antibody, V domains shown)
VH: QVQLVESGGGVVQPGRSLRLSCAASGITFSSYAMHWVRQAPGKGLEWVAVISYDGSDKYHADSVKGRFAISRDNSKNTLYLQMNSLRAEDTAVYYCAKDKGIAVAGTGWIRPDPEYYFDYWGQGTLVTVSS
VL: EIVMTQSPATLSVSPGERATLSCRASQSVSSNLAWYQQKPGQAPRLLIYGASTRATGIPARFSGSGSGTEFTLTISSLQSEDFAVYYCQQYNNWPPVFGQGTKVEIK
B8: in experiment [1], the “fold … (median fluorescence)” value stood at 1.3 fold over isotype.

B9: antibody 475 (antibody, V domains shown)
VH: QVQLVESGGGVVQPGRSLRLSCAASGFTFSSYAMHWVRQAPGKGLEWVTFISHEGSNKYYADSVKGRFTISRDNSKNTLYLQMNSLRAEDTAVYYCARTFEYSSSSATGDFDYWGQGTLVTVSS
VL: QSVLTQPPSVSGAPGQRVTISCTGSSSNIGAGYDVHWYQQLPGTAPKLLIYGNSNRPSGVPDRFSGSKSGTSASLAITGLQAEDEADYYCQSYDSSLSGVVFGGGTKLTVL
In the case of B9, in experiment [1], the “fold … (median fluorescence)” value came out at 1.18 fold over isotype.

B10: antibody 560 (antibody, V domains shown)
VH: EVQLVESGGGLVQPGGSLRLSCAASGFTISSNYMSWVRQAPGKGLEWVSVIYSGGSTYYADSVKGRFTISRDNSKNTLYLQMNSLRAEDTAVYYCAREEGEWEKDYYGMDVWGQGTTVTVSS
VL: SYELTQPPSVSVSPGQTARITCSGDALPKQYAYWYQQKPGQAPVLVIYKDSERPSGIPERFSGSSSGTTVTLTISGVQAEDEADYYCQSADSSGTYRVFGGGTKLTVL
For B10, the “fold … (median fluorescence intensity)” value in experiment [2] turned out to be 1.14 fold over isotype.

B11: antibody 444 (antibody, V domains shown)
VH: QVQLVESGGGLVKPGGSLRLSCAASGFTFSDYYMSWIRQAPGKGLEWVSYISSSGSTIYYADSVKGRFTISRDNAKNSLYLQMNSLRAEDTAVYYCARERKVVVAATRNYYYYYGMDVWGQGTTVTVSS
VL: SYELTQPPSVSVSPGQTARITCSGDALPKQYAYWYQQKPGQAPVLVIYKDSERPSGIPERFSGSSSGTTVTLTISGVQAEDEADYYCQSADSSTWVFGGGTKLTVL
Regarding B11, the “fold … (median fluorescence)” value in experiment [1] is 1 fold over isotype.

B12: antibody 431 (antibody, V domains shown)
VH: QVQLVESGGGVVQPGRSLRLSCAASGFTFSSYAMHWVRQAPGKGLEWLAVISYDGSNKYYADSVKGRFTISRDNSKNTLYLQMNSLRAEDTAVYYCARSFRGGYYYGMDVWGQGTTVTVSS
VL: DIQLTQSPSFLSASVGDRVTITCRASQGISSYLAWYQQKPGKAPKLLIYAASTLQSGVPSRFSGSGSGTEFTLTISSLQPEDFATYYCQQLNSYPLFTFGPGTKVDIK
In the case of B12, in experiment [3], the “median fluorescence fold over isotype control” value worked out at 49.9 fold over isotype control.

B13: antibody 439 (antibody, V domains shown)
VH: B12 VH with L48V, S99P, F100P, Y104S, G107P, M108F, V110P, T116L
VL: not shown
For the molecule B13, the “fold … (median fluorescence)” value in experiment [1] came to 1.23 fold over isotype.

B14: antibody 546 (antibody, V domains shown)
VH: QVQLVESGGGVVQPGRSLRLSCAASGFTFSSYGMHWVRQAPGKGLEWVAVIWYDGSNKYYADSVKGRFTISRDNSKNTLYLQMNSLRAEDTAVYYCARNCGGDCVAGDGFDYWGQGTLVTVSS
VL: DIQMTQSPSSLSASVGDRVTITCRASQSISSYLNWYQQKPGKAPNLLIYAASSLQSGVPSRFSGSGSGTDFTLTISSLQPEDFATYYCQQSYSALTWTFGQGTKVEIK
Take B14: in experiment [2], the “fold … (median fluorescence intensity)” value is 1.18 fold over isotype.

B15: antibody 446 (antibody, V domains shown)
VH: QVQLVESGGGVVQPGRSLRLSCAASGFTFSSYAMHWVRQAPGKGLEWVAVISYDGSNKYYADSVKGRFTISRDNSKNTLYLQMNSLRAEDTAVYYCARPNSGSYFGYFQHWGQGTLVTVSS
VL: QSVLTQPPSVSGAPGQRVTISCTGSSSNIGAGYDVHWYQQLPGTAPKLLIYGNSNRPSGVPDRFSGSKSGTSASLAITGLQAEDEADYYCQSYDSSLSGFYVFGTGTKVTVL
Take B15: the “fold … (median fluorescence)” value in experiment [1] was found to be 6.58 fold over isotype.

B16: antibody 548 (antibody, V domains shown)
VH: B15 VH with S85N, R98K, P99S, N100G, F105L, G106S, Y107A, Q109D, H110I, L116M
VL: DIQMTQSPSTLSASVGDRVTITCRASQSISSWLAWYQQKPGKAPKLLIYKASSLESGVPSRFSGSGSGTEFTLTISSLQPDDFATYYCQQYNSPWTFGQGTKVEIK
B16: the “fold … (median fluorescence intensity)” value in experiment [2] is 18.1 fold over isotype.

B17: antibody 476 (antibody, V domains shown)
VH: QVQLVQSGSELKKPGASVKVSCKASGYTFTSYAMNWVRQAPGQGLEWMGWINTNTGNPTYAQGFTGRFVFSLDTSVSTAYLQISSLKAEDTGVYYCARDHELPNSSSWFGHFEYWGQGTLVTVSS
VL: SYELTQPPSVSVSPGQTARITCSGDALPKQYAYWYQQKAGQAPVLVIYKDSERRSGIPERFSGSSSGTTVTLTISGVQAEDEADYYCQSADSSGTSVVFGGGTKLTVL
As to B17, the “fold … (median fluorescence)” value in experiment [1] was 1.04 fold over isotype.

B18: antibody 545 (antibody, V domains shown)
VH: B17 VH with S85V
VL: B17 VL
Regarding B18, the “fold … (median fluorescence intensity)” value in experiment [2] turned out to be 1.13 fold over isotype.

B19: antibody 544 (antibody, V domains shown)
VH: QVQLQQWGAGLLKPSETLSLTCAVYGGSFSGYYWSWIRQPPGKGLEWIGEINHSGSTNYNPSLKSRVTISVDTSKNQFSLKLSSVTAADTAVYYCARGFKWFGELLFGAQGTLVTVSS
VL: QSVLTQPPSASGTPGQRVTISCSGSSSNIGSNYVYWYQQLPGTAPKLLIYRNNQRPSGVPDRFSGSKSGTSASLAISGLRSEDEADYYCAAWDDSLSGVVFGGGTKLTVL
Consider B19, for which, in experiment [2], the “fold … (median fluorescence intensity)” value was determined as 1.05 fold over isotype.

B20: antibody 434 (antibody, V domains shown)
VH: QVQLVQSGAEVKKPGASVQVSCKASGYTFSDYYIFWVRQAPGQGLEWMGCINPKSGGAIYAQRFQGRVTMTRDTSFNTAYMEMNRLGSDDTAVYYCVTRGPPDIAASGFAWHLDVWGQGTTVTVSS
VL: DIVMTQSPLSLPVTPGEPASISCRSSQSLLSSNGYNYLEWYLQKPGQSPQLLMYLGSNRASGVPDRFSGSGSGTDFTLKINRVEAEDVGVYYCMQALQTPLTFGGGTKVEIK
B20: the “fold … (median fluorescence)” value in experiment [1] amounted to 1.36 fold over isotype.

B21: antibody 423 (antibody, V domains shown)
VH: EVQLVESGGGLIQPGGSLRISCAASGFTVRNNHMSWVRQAPGKGLEWVSVFYRGGTTYYADSVKGRFTISRDDSKNTVDLQMNSLRGEDTAVYYCARGLSVAASGYFDCWGQGTLVTVSS
VL: DIQMTQSPSSVSASVGDTVTITCRANQGISSWLAWYQQVPGKAPELLIYATSTLQSGVPSRFSGSGSGTDFTLTISSLQPEDFATYYCQQANSFPFTFGPGTKVDIK
With B21, the “median fluorescence fold over isotype control” value in experiment [3] was determined as 1.23 fold over isotype control.

B22: antibody 474 (antibody, V domains shown)
VH: EVQLVESGGGLVQPGGSLRLSCAASGFTFSSYWMHWVRQAPGKGLVWVSRINSDGSSTSYADSVKGRFTISRDNAKNTLYRQMNSLRAEDTAVYYCALGPLDIVGSYYYYGMDVWGQGTTVTVSS
VL: NFMLTQPHSVSESPGKTVTISCTGSSGSIASNYVQWYQQRPGSAPTTVIYEDNQRPSGVPDRFSGSIDSSSNSASLTISGLKTEDEADYYCQSYDSSNQDVVFGGGTKLTVL
For the molecule B22, the “fold … (median fluorescence)” value in experiment [1] came out at 1.1 fold over isotype.
